± gives the uncertainty stated by the source.
Assay: protein stability index of a GFP-peptide fusion (yeast GPS) (PSI 1-4); higher = more stable; sorted into four equal gates, so the index is relative within each strain
Outline: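 Sequencing reads from sorted gates were used to score each peptide. The library consisted of tiled 17-residue yeast protein peptides fused downstream of GFP on a Cherry-expressing plasmid, pooled and carried in yeast. Mid-log cultures in leucine-free medium were split into four equal gates by GFP/Cherry ratio, and each gate's plasmids were PCR-amplified and Illumina-sequenced. The protein stability index adds up, over all gates, the read frequency multiplied by the gate number.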

Sequence	protein stability index (doa10∆)	protein stability index (pdr5∆)	protein stability index (san1∆)	protein stability index (ubr1∆)
PVVRAPTVKYNRKVRAG [RPL13A]	1.22 ± 0.1	2.15 ± 0.14	1.98 ± 0.18	1.49 ± 0.11
FPWLNAIKYRPTSVKLL [POP3]	2.1 ± 0.038	2.19 ± 0.046	2.26 ± 0.062	1.96 ± 0.035
SEEKIRDYSKEILGINL [SIR4]	3.17 ± 0.14	3.03 ± 0.083	2.88 ± 0.073	3.06 ± 0.064
RNVTIQLENADTGTLDT [RPN2]	3.11 ± 0.095	3.2 ± 0.082	3.13 ± 0.069	3.2 ± 0.093
EERSNNLLTPQPTNFTT [MCD1]	3.02 ± 0.061	3.11 ± 0.063	2.91 ± 0.061	3.12 ± 0.05
LLLAAQIVSYCSNNKNS [SSN2]	1.17 ± 0.045	1.42 ± 0.048	1.23 ± 0.083	1.34 ± 0.045
SDIESLEALMDILLCYQ [SRB8]	2.84 ± 0.13	2.74 ± 0.2	3.03 ± 0.19	2.29 ± 0.2
ALKKSRSKGKQNRPYNH [RPC17]	3.04 ± 0.093	2.46 ± 0.1	2.5 ± 0.1	2.42 ± 0.091
DVLKSQANTEPENITKR [MCD1]	3.06 ± 0.1	3.02 ± 0.083	2.98 ± 0.057	3.09 ± 0.046
ESDGRMFIEEPTRMVRV [SRP54]	2.77 ± 0.082	2.99 ± 0.11	2.83 ± 0.099	2.73 ± 0.054
QSLNEMVKLIVMLCTLT [YJL039C/NUP192]	2.52 ± 0.071	2.63 ± 0.057	2.81 ± 0.11	2.27 ± 0.058
VHMYHKSLALLGYNFDG [SNF5]	2.26 ± 0.059	1.78 ± 0.046	2.02 ± 0.08	2.02 ± 0.05
NNLSNQLETLTGSIRHR [CSE2]	3.06 ± 0.096	2.98 ± 0.06	3.04 ± 0.049	3.13 ± 0.059
TIGGGLFGNKPTTTTGG [YGR119C/NUP57]	3 ± 0.094	3.25 ± 0.21	3.56 ± 0.15	–
PFGVSTIFGGVDKNGAH [PRE10]	3.06 ± 0.076	2.98 ± 0.069	2.73 ± 0.12	2.97 ± 0.049
AVVGQQIISGNRVPDGF [RPO31]	–	3.28 ± 0.28	2.88 ± 0.2	2.65 ± 0.13
RELILAKKQNYKLTNDE [YCG1]	3.37 ± 0.067	3.35 ± 0.053	3.23 ± 0.05	3.29 ± 0.041
GKELDSLDLNNLELGGL [PGD1]	3.08 ± 0.12	3.25 ± 0.12	2.99 ± 0.085	3.24 ± 0.066
GSSASSRKAHGLNAKQL [POP1]	3.21 ± 0.069	3.27 ± 0.084	3.13 ± 0.077	3.04 ± 0.066
EDNGIVKALRNVPGVET [RPL4A]	1.77 ± 0.16	–	2.46 ± 0.11	2.47 ± 0.19
VSPNAAPRQEISEEETT [YAR002W/NUP60]	3.19 ± 0.1	2.88 ± 0.077	2.9 ± 0.086	2.6 ± 0.12
KYSDILLKKATKPEVAS [CDC53]	2.32 ± 0.097	2.23 ± 0.12	2.47 ± 0.15	2.47 ± 0.17
EAESQLRAAQQQWGNDF [FAS2]	3.12 ± 0.072	3.35 ± 0.063	3.07 ± 0.072	3.23 ± 0.044
ETDHANTENNDPDIPMT [IRR1]	2.74 ± 0.09	2.59 ± 0.066	2.81 ± 0.048	2.68 ± 0.07
RNISFSDNNSRIMSRNF [SWI1]	2.93 ± 0.047	2.85 ± 0.057	2.9 ± 0.068	3.16 ± 0.035
QEMIDILETIFRGARKN [DIB1]	2.83 ± 0.14	–	2.77 ± 0.17	–
IRTQVNTGGESVVKKED [RGR1]	3.32 ± 0.18	3.5 ± 0.093	3.41 ± 0.098	3.4 ± 0.088

Reference: the supplement of paper PMC9732359
